Assays:
[1] = target: Human αvβ3 integrin (Chemicon, #CC1018), biotinylated (human) (UniProt P06756); assay: flow cytometry, 293A cells displaying the ScFvFc, αVβ3-biotin 5 ug/ml, APC-streptavidin
[2] = target: Human αvβ3 integrin (Chemicon, #CC1018), biotinylated (human) (UniProt P06756); assay: flow cytometry, 293A cells displaying the ScFvFc, αVβ3-biotin 0.5 ug/ml, APC-streptavidin
[3] = target: Human αvβ3 integrin (Chemicon, #CC1018), biotinylated (human) (UniProt P06756); assay: flow cytometry, 293A cells displaying the ScFvFc, αVβ3-biotin 10 ug/ml, APC-streptavidin
[4] = target: Human αvβ3 integrin (Chemicon, #CC1018), biotinylated (human) (UniProt P06756); assay: flow cytometry, 293A cells displaying the ScFvFc, αVβ3-biotin 2.5 ug/ml, APC-streptavidin
[5] = target: Human αvβ3 integrin (Chemicon, #CC1018), biotinylated (human) (UniProt P06756); assay: flow cytometry, 293A cells displaying the ScFvFc, αVβ3-biotin 1 ug/ml, APC-streptavidin

Chain of Human αvβ3 integrin (Chemicon, #CC1018), biotinylated (human) (P06756 31-1048 limits assumed, chain 1 of 2): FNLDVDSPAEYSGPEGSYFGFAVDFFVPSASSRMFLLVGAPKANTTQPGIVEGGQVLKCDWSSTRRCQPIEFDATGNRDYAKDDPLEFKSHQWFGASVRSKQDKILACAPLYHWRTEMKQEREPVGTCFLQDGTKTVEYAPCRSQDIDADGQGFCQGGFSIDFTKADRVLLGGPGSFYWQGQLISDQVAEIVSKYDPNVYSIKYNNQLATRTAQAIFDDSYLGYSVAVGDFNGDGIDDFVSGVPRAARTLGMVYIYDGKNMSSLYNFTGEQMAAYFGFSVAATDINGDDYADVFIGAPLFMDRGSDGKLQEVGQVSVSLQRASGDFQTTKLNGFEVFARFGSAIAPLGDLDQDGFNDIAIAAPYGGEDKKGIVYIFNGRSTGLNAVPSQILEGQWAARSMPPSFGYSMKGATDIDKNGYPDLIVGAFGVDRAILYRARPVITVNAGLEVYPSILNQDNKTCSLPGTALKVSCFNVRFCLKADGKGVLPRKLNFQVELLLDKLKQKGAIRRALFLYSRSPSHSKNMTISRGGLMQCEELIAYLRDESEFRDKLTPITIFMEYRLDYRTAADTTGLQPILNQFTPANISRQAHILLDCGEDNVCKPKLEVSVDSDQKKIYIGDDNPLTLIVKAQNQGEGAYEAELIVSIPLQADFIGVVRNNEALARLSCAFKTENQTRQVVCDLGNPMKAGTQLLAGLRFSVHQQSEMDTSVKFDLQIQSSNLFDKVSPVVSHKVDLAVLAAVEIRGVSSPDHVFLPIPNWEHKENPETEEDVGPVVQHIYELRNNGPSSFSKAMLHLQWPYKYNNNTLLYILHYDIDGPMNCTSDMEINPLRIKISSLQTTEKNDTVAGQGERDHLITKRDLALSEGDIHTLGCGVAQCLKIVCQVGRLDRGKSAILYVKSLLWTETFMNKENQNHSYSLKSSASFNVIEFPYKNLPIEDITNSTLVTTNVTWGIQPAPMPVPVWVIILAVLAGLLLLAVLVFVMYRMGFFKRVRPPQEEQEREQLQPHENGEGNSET
Chain of Human αvβ3 integrin (Chemicon, #CC1018), biotinylated (human) (P05106 27-788 limits assumed, chain 2 of 2, further chain): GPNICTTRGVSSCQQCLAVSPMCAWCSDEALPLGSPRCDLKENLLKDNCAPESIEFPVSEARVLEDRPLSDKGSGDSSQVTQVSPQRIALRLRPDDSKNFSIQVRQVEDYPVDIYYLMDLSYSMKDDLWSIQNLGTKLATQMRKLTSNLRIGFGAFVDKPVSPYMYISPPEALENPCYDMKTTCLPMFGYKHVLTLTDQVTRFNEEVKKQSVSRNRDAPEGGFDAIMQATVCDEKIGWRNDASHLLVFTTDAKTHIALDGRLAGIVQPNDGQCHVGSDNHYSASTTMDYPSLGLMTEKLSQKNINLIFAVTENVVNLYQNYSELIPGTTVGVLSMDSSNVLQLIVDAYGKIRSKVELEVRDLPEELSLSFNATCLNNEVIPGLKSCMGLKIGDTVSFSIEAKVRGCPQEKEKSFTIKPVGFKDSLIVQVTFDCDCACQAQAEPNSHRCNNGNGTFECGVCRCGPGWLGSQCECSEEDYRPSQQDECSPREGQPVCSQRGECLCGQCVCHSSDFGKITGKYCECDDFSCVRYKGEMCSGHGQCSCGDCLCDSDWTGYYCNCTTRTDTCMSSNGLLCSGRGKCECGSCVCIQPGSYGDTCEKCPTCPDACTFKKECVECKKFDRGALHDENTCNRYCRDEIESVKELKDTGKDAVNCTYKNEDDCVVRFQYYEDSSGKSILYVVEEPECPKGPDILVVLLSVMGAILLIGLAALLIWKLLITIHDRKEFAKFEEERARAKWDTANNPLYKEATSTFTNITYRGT

Percentage of positively stained cell [1]: 84%
Percentage of positively stained cell [2]: 81%
Percentage of positively stained cell [3]: 90%
Percentage of positively stained cell [4]: 85%
Percentage of positively stained cell [5]: 83%
B1: Abegrin anti-αvβ3 integrin ScFvFc, displayed on 293A cells (scFv, INN chains, looked up, V domains shown)
VH: QVQLVESGGGVVQPGRSLRLSCAASGFTFSSYDMSWVRQAPGKGLEWVAKVSSGGGSTYYLDTVQGRFTISRDNSKNTLYLQMNSLRAEDTAVYYCARHLHGSFASWGQGTTVTVSS
VL: EIVLTQSPATLSLSPGERATLSCQASQSISNFLHWYQQRPGQAPRLLIRYRSQSISGIPARFSGSGSGTDFTLTISSLEPEDFAVYYCQQSGSWPLTFGGGTKVEIK
modifications: scFv-Fc displayed on 293A cell surface
